According to US20240100174A1, “PROTEIN-PEG INTERACTIONS THAT REDIRECT THE THERMAL UNFOLDING PATHWAY OF PEGYLATED HUMAN GALECTIN-3C” (UNIVERSITY OF FLORIDA RESEARCH FOUNDATION, INCORPORATED, priority 2022, published 2024):

How the values were obtained:
[1] = Variable temperature circular dichroism (CD) thermal unfolding; type: physicochemical; settings: for Tm1 ± StDev: normalized CD at 220 nm vs. temperature, 3 replicates averaged, ramp 30-90° C. at 1° C. per minute; for thermal unfolding behaviour / formation of unfolding intermediate: result in words, for polymer conjugates the selected SEC fractions; for Tm2 ± StDev: second unfolding transition, cells printed as ND with footnote b
Procedure: CD spectroscopic data were recorded with an Applied Photophysics™ Chirascan spectrophotometer equipped with a Quantum Northwestern Peltier temperature control device and operating with Chirascan v4.7.0 and Pro-Data™ Viewer software. Samples were prepared in PBS at final concentrations of 10 μM. All samples were contained in 2 mm tapered quartz cuvettes, and a temperature probe was inserted through the cuvette cap to monitor the sample temperature in real time. The following parameters were used for constant temperature experiments: CD signal measured in millidegrees, bandwidth of 1.0 nm, wavelength scan from 200-280 nm, step size of 2.0 nm. Spectra were background subtracted against the sample buffer. For thermal unfolding experiments, a linear thermal ramp was applied from 30° C. to 90° C. at 1° C. per minute. All spectra were measured in triplicate, and data were normalized to account for slight differences in protein concentration.
To calculate melting temperatures of unconjugated Gal3C, Gal3C[T243C], and Gal3C[T243C] variants containing lysine replacements, the normalized data were fit to a Boltzmann sigmoidal function in Origin v8.5. For the data fitting, no parameters were fixed, and the ‘x’ parameter defined as the center of the data was interpreted as the melting temperature (Tm). Variable temperature CD data of PEGylated Gal3C[T243C] and Gal3C[T243C] variants were fit with a sum of two Boltzmann sigmoidal functions, as shown below:
where ‘A1’, ‘A2’, and ‘A3’ represent three plateaus of the CD signal, ‘dx1’ and ‘dx2’ are the change in x between the plateaus for each melting transition, and ‘x1’ and ‘x2’ are the two Tm values extracted by the fit for the first and second unfolding transitions, respectively. Because the third plateau, A3, occurred at temperatures higher than the experimentally accessible range, this value was estimated. A single wavelength for plotting on the y-axis was selected by calculating the wavelength of greatest CD signal change for each PEGylated construct.
To record a CD spectrum of Gal3C[T243C] with free PEG, a stock solution of methoxy-PEG (mPEG) in 1×PBS was added immediately before the experiment to a solution containing protein (20 μM, 1 ×PBS) to a final concentration of 22 μM mPEG. All thermal melt parameters were the same as listed in the above described experiments.
CD spectroscopic data were recorded with an Applied Photophysics Chirascan spectrophotometer equipped with a Quantum Northwestern Peltier temperature control device and operating with Chirascan v4.7.0 and Pro-Data Viewer software, following procedures used in our previous study.^4 Spectra were background subtracted against the sample buffer. For thermal unfolding experiments, a linear thermal ramp was applied from 30° C. to 90° C. at 1° C. per minute with samples concentrated to 10 μM in PBS. All spectra were measured in triplicate, and data were normalized to account for slight differences in protein concentration.
Full wavelength (200-280 nm) CD spectra for each construct (FIG. 43) were used to calculate a wavelength of greatest change (222 or 224 nm) to create single wavelength CD vs. temperature plots (FIG. 30H-J and FIG. 31F-G). The single wavelength CD signal vs. temperature plot of Gal3C[T243C] used data acquired at 220 nm, which was the wavelength of greatest change for the unmodified protein. To calculate melting temperatures, the normalized data were fit to a Boltzmann sigmoidal function in Origin v8.5. For the data fitting, no parameters were fixed, and the ‘x’ parameter defined as the center of the data was interpreted as the melting temperature (Tm).

[2] = Equilibrium binding of lactose, intrinsic tryptophan fluorescence; settings: ligand lactose; average ± standard deviation of 3 replicated experiments; PBS; read-out: Kd (equilibrium binding constant)
Procedure: (§1) Equilibrium binding data were recorded using a protocol adapted from a previous procedure from Restuccia, et al (38). Intrinsic tryptophan fluorescence was monitored using a Cary Eclipse™ Fluorescence Spectrophotometer (Agilent) operating with Cary Eclipse™ WinFLR software version 1.2 in ‘Scan Mode’. The instrument method parameters were as follows: excitation wavelength was 280 nm, the acquisition range was from 290 nm to 440 nm and the photomultiplier tube sensitivity was set to ‘medium’. Samples were prepared at final concentrations of 1 μM for Gal3C[T243C] or 5 μM Gal3C[T243C]-PEG in 800 ∥L, in PBS for each titration. Samples were pipetted into 0.7×0.7 cm quartz cuvettes with a micro stir bar. Each new experiment was first zeroed against PBS to remove the small background signal from the buffer. […]
(§2) The binding affinity and specificity of Gal3C[T243C]-PEG was compared with Gal3C[T243C] and Gal3C (see FIG. 1C, FIG. 9 and FIG. 10) via an inherent tryptophan fluorescence assay optimized to ensure equilibrium binding conditions. Binding of lactose or LacNac quenches the fluorescence of W181, located adjacent to the bound sugar in the crystal structure of Gal3C, thus permitting direct measurement of ligand Kd values.

[3] = Equilibrium binding of LacNac, intrinsic tryptophan fluorescence; settings: ligand LacNac; average ± standard deviation of 3 replicated experiments; PBS; read-out: Kd (equilibrium binding constant)
Procedure: as §1
as §2, with “values. […]” for “values.”

breast cancer = breast cancer animal models; cited from earlier work

Kd [2]	Kd [3]	Molecule	Tm1 ± StDev [1]	Tm1 ± StDev ([1]; listed as Gal3C[T243C,K139I])	thermal unfolding behaviour / formation of unfolding intermediate [1]	Tm2 ± StDev [1]	Tm / Tm1 ([1]; values of Summary of Results, Tm for unconjugated protein, Tm1 for PEG conjugate)	tumor growth (breast cancer)	fitted melting temperature (Tm) ([1]; FIG. 13, normalized CD intensity at 220 nm, Boltzmann sigmoidal fit)	Tm1 ± StDev ([1]; listed as Gal3C[T243C,K139I,K196I])
–	–	Gal3C[T243C, K139I]: Gal3C[T243C] variant with lysine K139 replaced by isoleucine	52.5 ± 0.4 °C	52.5 °C	cooperative one step unfolding	ND^b (Higher than detectable by instrument (>90° C.))	52.7 °C	–	–	–
529 ± 125 µM	231 ± 32.3 µM	Gal3C: carbohydrate recognition domain of human galectin-3, residues A111 to E252; SEQ ID NO: 13 (protein) MAGPLIVPYNLPLPGGVVPRMLITILGTVKPNANRIALDFQRGNDVAFHFNPRFNENNRRVIVCNTKLDNNWGREERQSVFPFESGKPFKIQVLVEPDHFKVAVNDAHLLQYNHRVKKLNEISKLGISGDIDLTSASYTMILEHHHHHH	58.8 ± 0.6 °C	–	–	–	–	inhibiting tumor growth	58.4 °C	–
–	–	Gal3C[T243C, K139I, K196I]: Gal3C[T243C] variant with lysines K139 and K196 replaced by isoleucines (protein) MADNFSLHDALSGSGNPNPQGWPGAWGNQPAGAGGYPGASYPGAYPGQAPPGAYPGQAPPGAYPGAPGAYPGAPAPGVYPGPPSGPGAYPSSGQPSATGAYPATGPYGAPAGPLIVPYNLPLPGGVVPRMLITILGTVIPNANRIALDFQRGNDVAFHFNPRFNENNRRVIVCNTKLDNNWGREERQSVFPFESGIPFKIQVLVEPDHFKVAVNDAHLLQYNHRVKKLNEISKLGISGDIDLCSASYTMI	60.5 ± 0.6 °C	–	cooperative one step unfolding	ND^b (Higher than detectable by instrument (>90° C.))	–	–	–	60.5 °C
–	–	Gal3C[T243C,K139I,K196I,K199I]: Gal3C[T243C] variant with lysines K139, K196 and K199 replaced by isoleucines (protein) MADNFSLHDALSGSGNPNPQGWPGAWGNQPAGAGGYPGASYPGAYPGQAPPGAYPGQAPPGAYPGAPGAYPGAPAPGVYPGPPSGPGAYPSSGQPSATGAYPATGPYGAPAGPLIVPYNLPLPGGVVPRMLITILGTVIPNANRIALDFQRGNDVAFHFNPRFNENNRRVIVCNTKLDNNWGREERQSVFPFESGIPFIIQVLVEPDHFKVAVNDAHLLQYNHRVKKLNEISKLGISGDIDLCSASYTMI	–	–	significantly altered unfolding profile	–	–	–	–	–
